Paper PMC2115109
“And” between values parts separate entries of the source, which are not always exact repeats. Equal entries are not always repeated.

How the values were obtained:
[1] = target: F-actin (actin filaments) from rabbit skeletal muscle (rabbit) (UniProt P68135); experiment: co-sedimentation
[2] = target: monomeric actin from rabbit skeletal muscle (rabbit) (UniProt P68135); experiment: pull-down

CT28N, 28-kD chymotryptic fragment from the NH2-terminal half of human plasma gelsolin (domain or fragment), sequence (P06396 151-406): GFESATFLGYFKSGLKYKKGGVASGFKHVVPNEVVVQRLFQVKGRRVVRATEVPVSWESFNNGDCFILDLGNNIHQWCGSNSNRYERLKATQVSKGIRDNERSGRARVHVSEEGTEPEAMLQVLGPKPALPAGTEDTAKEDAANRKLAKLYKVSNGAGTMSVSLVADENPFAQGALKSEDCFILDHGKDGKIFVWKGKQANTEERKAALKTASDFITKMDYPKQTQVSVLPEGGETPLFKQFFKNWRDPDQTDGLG
CT45N, 45-kD NH2-terminal half chymotryptic fragment of human plasma gelsolin (domain or fragment), sequence (P06396 1-406): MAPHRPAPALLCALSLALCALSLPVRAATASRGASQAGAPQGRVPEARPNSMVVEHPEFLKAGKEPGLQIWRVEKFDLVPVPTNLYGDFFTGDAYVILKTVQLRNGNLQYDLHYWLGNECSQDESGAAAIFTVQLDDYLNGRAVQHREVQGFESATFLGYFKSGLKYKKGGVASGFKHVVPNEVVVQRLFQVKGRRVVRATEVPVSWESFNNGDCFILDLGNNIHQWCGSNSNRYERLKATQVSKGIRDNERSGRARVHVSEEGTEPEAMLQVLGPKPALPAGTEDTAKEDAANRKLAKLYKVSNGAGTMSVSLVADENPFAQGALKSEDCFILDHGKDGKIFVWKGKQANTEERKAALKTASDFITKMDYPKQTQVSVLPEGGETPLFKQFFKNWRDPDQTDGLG

Substance	Ka [1]	Kd [1]	percent of input sedimented [1]	percent sedimented [1]	radioactivity on the beads [2]
CT28N, 28-kD chymotryptic fragment from the NH2-terminal half of human plasma gelsolin (domain or fragment)	5e+06 M⁻¹	200 nM and 280 nM	100%	100%	
CT45N, 45-kD NH2-terminal half chymotryptic fragment of human plasma gelsolin (domain or fragment)				67%	540 cpm
